Results published in the supplement of paper PMC6757056.
± gives the standard deviation of the averaged measurements.

B1: library; a variant is named by its letters at N, in order (parent)
chain: GCUGUCACCGGUGUAUUACCCUAGUGGUCGACCGGUCUGAUGAGUCUNNNNNNAGACGAAACAGC

Columns and labels:
hypoxanthine [1] = variants of: B1; experiment: FACS-Seq fitted mean relative fluorescence mCherry/BFP without ligand (log10 relative fluorescence); ligand: hypoxanthine (xanthine aptamer); higher = higher reporter protein expression; conditions: HEK293T, ligand present: no
Method in brief: (§1)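 An mCherry reporter containing the ribozyme switch and an EF1α-BFP marker were introduced by lentivirus into HEK293T libraries. Cells were enriched, incubated 48 h with or without ligand, sorted into 6 bins by mCherry/BFP, and bin genomic DNA was PCR-amplified, barcoded and sequenced on MiSeq. Fluorescence represents the normalized fitted normal mean of the bin counts. Fitting was done on log10(mCherry/BFP), scaling to five spiked-in control ribozymes.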

hypoxanthine [2] = variants of: B1; experiment: normalized RNA/DNA level with ligand (relative to sTRSVctl = 100) (log10 (% of sTRSVctl)); ligand: hypoxanthine (xanthine aptamer); higher = less ribozyme self-cleavage, higher mRNA level; conditions: ligand concentration (+) RNA-Seq: 5 mM, HEK293T, reporter: mCherry (pCS4076), ligand present: yes
Method in brief: (§2)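 Ribozyme switch library plasmids linked to reporters were introduced into HEK293T cells at 4 µg per 6-well well, with ligand, if any, added 1 h before. Total RNA was extracted with EDTA 72 h later, reverse-transcribed, amplified, barcoded and sequenced. RNA level was computed from RNA over DNA reads relative to a spiked-in non-cleaving sequence or the top sequences, then scaled and log-transformed. The top set was 25 sequences, values were ×100 and log10, and the cutoff was ≥100 DNA reads.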

hypoxanthine [3] = variants of: B1; experiment: normalized RNA/DNA level without ligand (relative to sTRSVctl = 100) (log10 (% of sTRSVctl)); ligand: hypoxanthine (xanthine aptamer); higher = less ribozyme self-cleavage, higher mRNA level; conditions: HEK293T, reporter: mCherry (pCS4076), ligand present: no
Method in brief: as §2

hypoxanthine [4] = variants of: B1; experiment: FACS-Seq fitted mean relative fluorescence mCherry/BFP with ligand (log10 relative fluorescence); ligand: hypoxanthine (xanthine aptamer); ligand concentration (+) FACS-Seq: 5 mM; higher = higher reporter protein expression; conditions: HEK293T, ligand present: yes
Method in brief: as §1

Row | Variant | FACS-Seq fitted mean (log10) (hypoxanthine [1]) | normalized RNA/DNA level with ligand (log10) (hypoxanthine [2]) | normalized RNA/DNA level without ligand (log10) (hypoxanthine [3]) | FACS-Seq fitted mean (log10) (hypoxanthine [4])
1 | UGCUAU | 0.535 ± 0.025 | 1.93 ± 0.023 | 1.88 ± 0.028 | 0.662 ± 0.05
2 | UGCAAG | 0.123 ± 0.078 | 1.853 ± 0.0049 | 1.72 ± 0.021 | 0.179 ± 0.031
3 | UGCAAA | 0.613 ± 0.029 | 1.879 ± 0.0083 | 1.787 ± 0.017 | 0.635 ± 0.019
4 | GGAGUG | 0.301 ± 0.025 | 1.85 ± 0.027 | 1.413 ± 0.014 | 0.7 ± 0.032
5 | GGAGUC | 0.764 ± 0.047 | 1.93 ± 0.042 | 1.885 ± 0.014 | 0.567 ± 0.047
6 | GGCCUG | 0.145 ± 0.02 | 1.99 ± 0.062 | 1.809 ± 0.013 | 0.239 ± 0.046
7 | UGAGCU | 0.136 ± 0.16 | 1.918 ± 0.018 | 1.904 ± 0.017 | -0.0419 ± 0.064
8 | CGCCAG | 0.462 ± 0.027 | 1.99 ± 0.051 | 1.84 ± 0.12 | 0.537 ± 0.0082
9 | GGGACG | 0.352 ± 0.016 | 1.894 ± 0.014 | 1.51 ± 0.021 | 0.708 ± 0.031
10 | AGAGUA | 0.5286 ± 0.0017 | 1.892 ± 0.0036 | 1.7 ± 0.034 | 0.675 ± 0.034
11 | AGCCAG | 0.512 ± 0.025 | 1.89 ± 0.024 | 1.591 ± 0.007 | 0.71 ± 0.041
12 | AGCCAA | 0.57 ± 0.1 | 1.888 ± 0.017 | 1.8 ± 0.028 | 0.566 ± 0.067
13 | AGCCAU | -0.282 ± 0.012 | 1.92 ± 0.052 | 1.78 ± 0.027 | 0.15 ± 0.033
14 | UGCCGG | -0.14 ± 0.0069 | 1.938 ± 0.0072 | 1.71 ± 0.068 | -0.119 ± 0.14
15 | CGGAAA | 0.32 ± 0.016 | 1.87 ± 0.025 | 1.43 ± 0.051 | 0.587 ± 0.016
16 | CGGAAU | 0.0719 ± 0.0065 | 1.81 ± 0.052 | 1.42 ± 0.016 | 0.548 ± 0.059
17 | CGGAAG | 0.266 ± 0.007 | 1.905 ± 0.011 | 1.734 ± 0.0046 | 0.361 ± 0.062
18 | GGCAGA | 0.082 ± 0.022 | 1.921 ± 0.0091 | 1.51 ± 0.065 | 0.449 ± 0.062

Row | Variant | FACS-Seq fitted mean (log10) (hypoxanthine [1]) | normalized RNA/DNA level with ligand (log10) (hypoxanthine [2]) | normalized RNA/DNA level without ligand (log10) (hypoxanthine [3]) | FACS-Seq fitted mean (log10) (hypoxanthine [4])
19 | GGCAGU | 0.196 ± 0.14 | 1.98 ± 0.04 | 1.85 ± 0.046 | 0.205 ± 0.0051
20 | GGCAGC | 0.306 ± 0.06 | 1.921 ± 0.012 | 1.603 ± 0.0027 | 0.651 ± 0.043
21 | AGCAAC | 0.133 ± 0.046 | 1.91 ± 0.054 | 1.79 ± 0.043 | 0.1066 ± 0.00061
22 | AGCAAG | 0.616 ± 0.025 | 1.81 ± 0.024 | 1.45 ± 0.056 | 0.87 ± 0.096
23 | AGCAAU | 0.645 ± 0.018 | 1.9127 ± 0.00078 | 1.8332 ± 0.00014 | 0.608 ± 0.03
24 | GGCCGU | 0.465 ± 0.071 | 1.95 ± 0.034 | 1.945 ± 0.014 | 0.502 ± 0.0071
25 | CGCGCC | 0.276 ± 0.055 | 1.93 ± 0.021 | 1.96 ± 0.044 | 0.445 ± 0.033
26 | UGAGUG | 0.274 ± 0.026 | 1.9 ± 0.0079 | 1.64 ± 0.047 | 0.263 ± 0.019
27 | UGAGUC | 0.177 ± 0.08 | 1.99 ± 0.004 | 1.97 ± 0.025 | -0.0516 ± 0.012
28 | CGAGUC | 0.0141 ± 0.11 | 1.958 ± 0.016 | 1.91 ± 0.094 | 0.106 ± 0.053
29 | CGAGUU | 0.866 ± 0.02 | 2 ± 0.039 | 1.834 ± 0.015 | 0.833 ± 0.11
30 | AGAUAA | 0.265 ± 0.036 | 1.88 ± 0.022 | 1.75 ± 0.042 | -0.0706 ± 0.047
31 | AGAUAC | 0.757 ± 0.025 | 1.91 ± 0.052 | 1.74 ± 0.029 | 0.699 ± 0.065
32 | GGAUUG | 0.023 ± 0.012 | 1.857 ± 0.017 | 1.42 ± 0.059 | 0.4602 ± 0.0025
33 | AGCAUU | -0.328 ± 0.0053 | 1.92 ± 0.065 | 1.86 ± 0.057 | -0.19 ± 0.0097
34 | AGCAUA | 0.318 ± 0.075 | 1.9 ± 0.044 | 1.82 ± 0.02 | 0.286 ± 0.19
35 | AGCAUG | 0.201 ± 0.012 | 1.87 ± 0.079 | 1.4892 ± 0.001 | -0.275 ± 0.19
36 | GGGAAU | 0.489 ± 0.043 | 1.93 ± 0.045 | 1.64 ± 0.021 | 0.654 ± 0.069
